To fix the notation:
B1: … (peptide)
peptide: VFHPRQELI
B2: … (peptide)
peptide: AFSPDSHYLLF
B3: … (peptide)
peptide: AYGTYRSNF
B4: … (peptide)
peptide: RYAPPPSFSEF
B5: … (peptide)
peptide: KFVTVQATF
B6: … (peptide)
peptide: IYVTSIEQI
B7: … (peptide)
peptide: VYGLQRNLL
B8: … (peptide)
peptide: RWPKKSAEF
B9: … (peptide)
peptide: RYSAGWDAKF
B10: … (peptide)
peptide: IYTGNISSF
B11: … (peptide)
peptide: IYIPSYFDF
B12: … (peptide)
peptide: IYPGAFVDL
B13: … (peptide)
peptide: VYQGAIRQI
B14: … (peptide)
peptide: RYNEKCFKL
B15: … (peptide)
peptide: SYITKPEKW
B16: … (peptide)
peptide: SYNPAENAVLL
B17: … (peptide)
peptide: YYGILQEKI
B18: … (peptide)
peptide: AYVNTFHNI
B19: … (peptide)
peptide: AYLLQPSQF
B20: … (peptide)
peptide: IYADVGEEF
B21: … (peptide)
peptide: AYPAIRYLL
B22: … (peptide)
peptide: IYLERFPIF
B23: … (peptide)
peptide: YYNKVSTVF
B24: … (peptide)
peptide: DYIPYVFKL
B25: … (peptide)
peptide: VYGDVISNI
B26: … (peptide)
peptide: AYLKWISQI
B27: … (peptide)
peptide: LYWSHPRKF
B28: … (peptide)
peptide: KYPDIISRI
B29: … (peptide)
peptide: SYPTFFPRF
B30: … (peptide)
peptide: KWPETPLLL
B31: … (peptide)
peptide: ALDSGAFQSV
modifications: not checked

Drawing on patent publication US20160250307A1, this text covers peptide exchange yield for 31 molecules.

The target in the first experiment is HLA-A*24 (human). As to the kind of experiment: UV-ligand exchange, anti-b2m ELISA; grade: exchange yield >=50%.
In turn, B1 displayed a peptide exchange yield of 50 to 75%.

For the molecule B2, the peptide exchange yield was 50 to 75%.

Another experiment addresses HLA-A*24 (human). As to the kind of experiment: UV-ligand exchange, anti-b2m ELISA; grade: exchange yield >=75%. On the technique in general: ELISA stands for enzyme-linked immunosorbent assay.
B3 had a peptide exchange yield greater than 75%.

In the case of B4, the peptide exchange yield was greater than 75%.

As to B5, the peptide exchange yield is greater than 75%.

B6 had a peptide exchange yield greater than 75%.

B7 came in with a peptide exchange yield greater than 75%.

In turn, B8 returned a peptide exchange yield greater than 75%.

Molecule B9 came in with a peptide exchange yield greater than 75%.

For the molecule B10, the peptide exchange yield was greater than 75%.

Consider B11, for which the peptide exchange yield is greater than 75%.

In turn, B12 displayed a peptide exchange yield greater than 75%.

As to B13, the peptide exchange yield was greater than 75%.

Turning to B14, the peptide exchange yield was greater than 75%.

B15 had a peptide exchange yield greater than 75%.

The molecule B16 gave a peptide exchange yield greater than 75%.

B17 showed a peptide exchange yield greater than 75%.

Turning to B18, the peptide exchange yield is greater than 75%.

B19 registered a peptide exchange yield greater than 75%.

In turn, B20 showed a peptide exchange yield greater than 75%.

Regarding B21, the peptide exchange yield is greater than 75%.

B22 yielded a peptide exchange yield greater than 75%.

In the case of B23, the peptide exchange yield is greater than 75%.

With B24, the peptide exchange yield was greater than 75%.

B25 gave a peptide exchange yield greater than 75%.

Molecule B26 returned a peptide exchange yield greater than 75%.

B27 registered a peptide exchange yield greater than 75%.

In turn, B28 had a peptide exchange yield greater than 75%.

Consider B29, for which the peptide exchange yield is greater than 75%.

For B30, the peptide exchange yield was greater than 75%.

Another experiment addresses HLA-A*02 (human). As to the kind of experiment: UV-ligand exchange, anti-b2m ELISA; grade: exchange yield >=50%.
Molecule B31 came in with a peptide exchange yield of 50 to 75%.
